Source: publication PMC4546514
Values joined by “and” are separate entries in the source; they are usually repeats but may differ in a detail not shown here. Equal values may be shown once. Read-outs that look alike come from different tables or passages of the source.

What was measured:
[1] = target: purified recombinant Ded1p (S. cerevisiae) (UniProt P06634); assay: cross-linking
[2] = target: purified recombinant Ded1p (S. cerevisiae) (UniProt P06634); assay: cross-linking; remark: listed apart in the source

“purified recombinant Ded1p (from UniProt P06634 1-604) (natural protein; other documents disagree on this pair)” was tested, and the stoichiometry N [1] was 2 and 3 and the stoichiometry N [2] was < 5.
